Results as given in US20250043302A1, “MUTATED HYDROXYPHENYLPYRUVATE DIOXYGENASE POLYPEPTIDE, AND CODING GENE AND USE THEREOF” (BEIJING DABEINONG BIOTECHNOLOGY CO., LTD., priority 2021, published 2025).
Substitutions are numbered along the chain they refer to. Names may count otherwise.

B1: PfHPPD-02: nucleotide sequence encoding wild-type Pseudomonas fluorescens HPPD; vector DBN11770 (nucleic acid)
DNA: ATGGCCGATTTGTACGAGAACCCAATGGGACTCATGGGTTTCGAGTTCATTGAGTTCGCTTCCCCCACCCCAGGTACTTTGGAGCCTATTTTCGAGATCATGGGCTTCACTAAGGTTGCCACACACAGGTCTAAGAATGTGCATCTCTACCGCCAAGGAGAGATTAACCTGATCCTTAACAATGAGCCTAATAGCATCGCCTCATACTTCGCTGCTGAGCATGGTCCATCTGTTTGCGGCATGGCTTTCAGAGTGAAGGATTCACAAAAGGCCTACAACAGGGCTTTGGAGCTCGGCGCCCAGCCCATTCATATCGACACCGGACCTATGGAGCTGAATCTTCCTGCCATTAAGGGCATCGGCGGAGCTCCATTGTACCTCATTGATCGCTTCGGCGAGGGCTCCTCTATCTACGATATCGACTTCGTGTACCTGGAGGGCGTTGAGAGAAACCCTGTGGGAGCTGGTCTGAAGGTTATCGACCACCTTACTCATAATGTTTACAGAGGAAGGATGGTGTACTGGGCCAACTTCTACGAGAAGCTGTTCAATTTCCGCGAGGCTAGATACTTCGATATTAAGGGCGAGTACACAGGACTTACCTCCAAGGCCATGTCTGCTCCCGACGGTATGATTAGGATCCCATTGAACGAGGAGAGCTCAAAGGGCGCCGGACAGATTGAGGAGTTCCTCATGCAATTCAATGGTGAAGGCATCCAGCACGTTGCTTTCCTGACAGATGACCTTGTGAAGACCTGGGATGCCCTCAAGAAGATTGGCATGAGGTTCATGACCGCTCCACCTGACACTTACTACGAGATGTTGGAGGGACGCCTCCCTGATCATGGCGAGCCCGTTGACCAGCTGCAAGCTAGAGGAATCCTCCTGGATGGTTCCTCTGTGGAGGGCGACAAGAGGCTTTTGCTCCAAATTTTCAGCGAGACTCTTATGGGACCCGTGTTCTTCGAGTTCATCCAGAGGAAGGGCGATGACGGATTCGGCGAGGGCAACTTCAAGGCCCTGTTCGAGTCTATTGAGAGAGATCAGGTGAGGCGCGGCGTTCTTACAGCTGACTGA
modifications: PfHPPD-02 Nucleotide Sequence
notes: vector DBN11770
B2: PfHPPDm-F372A-02: nucleotide sequence encoding Pseudomonas fluorescens HPPD with F372A; vector DBN11771 (nucleic acid)
DNA: B1 DNA with T934G, T935C, C936T
modifications: PfHPPDm-F372A-02 Nucleotide Sequence
notes: vector DBN11771
B3: PfHPPDm-F383W-02: nucleotide sequence encoding Pseudomonas fluorescens HPPD with F383W; vector DBN11772 (nucleic acid)
DNA: B1 DNA with T962G, C963G
modifications: PfHPPDm-F383W-02 Nucleotide Sequence
notes: vector DBN11772
B4: PfHPPDm-F372A-F383W-02: nucleotide sequence encoding Pseudomonas fluorescens HPPD with F372A+F383W; vector DBN11773 (nucleic acid)
DNA: B1 DNA with T934G, T935C, C936T, T962G, C963G
modifications: PfHPPDm-F372A-F383W-02 Nucleotide Sequence
notes: vector DBN11773

tested on: Arabidopsis thaliana T1 plants; assay: Mesotrione tolerance of transgenic Arabidopsis thaliana T1 plants (spray, bleached leaf area grade, damage score); assay type: in vivo; design: Scores: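 damage score 0-100 computed as Σ(N×S)/(T×M)×100 over grades 0-3 with higher meaning more damage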; conditions: mesotrione 52.5 g ai/ha; Arabidopsis thaliana T1 plants
From the text: T1 transformants were initially selected from the untransformed seeds using a glufosinate selection scheme. The Arabidopsis thaliana T1 plants (AsHPPD-02) into which the AsHPPD-02 nucleotide sequence was introduced, the Arabidopsis thaliana T1 plants (AsHPPDm-F372A-02) into which the AsHPPDm-F372A-02 nucleotide sequence was introduced, the Arabidopsis thaliana T1 plants (AsHPPDm-F383W-02) into which the AsHPPDm-F383W-02 nucleotide sequence was introduced, the Arabidopsis thaliana T1 plants (AsHPPDm-F372A-F383W-02) into which the AsHPPDm-F372A-F383W-02 nucleotide sequence was introduced, the Arabidopsis thaliana T1 plants (DBN11726N) into which the control recombinant expression vector DBN11726N was introduced, and the wild-type Arabidopsis thaliana plants (CK) (18 days after sowing) were sprayed respectively with topramezone at three concentrations (100 g ai/ha (four-fold field concentration, 4×), 200 g ai/ha (eight-fold field concentration, 8×), and 0 g ai/ha (water, 0×)), isoxaflutole at three concentrations (140 g ai/ha (two-fold field concentration, 2×), 280 g ai/ha (four-fold field concentration, 4×), and 0 g ai/ha (water, 0×)), and mesotrione at three concentrations (210 g ai/ha (two-fold field concentration, […]), 420 g ai/ha (four-fold field concentration, 4×), and 0 g ai/ha (water, 0×)), to determine the tolerance of Arabidopsis thaliana to the herbicides. The degree of damage caused by the herbicide was measured for each plant according to the proportion of bleached leaf area (the proportion of bleached leaf area=bleached leaf area/total leaf area×100%) 7 days after spraying (7 DAT): the case where there is basically no bleached phenotype is defined as grade 0, the case where the proportion of bleached leaf area is less than 50% is defined as grade 1, the case where the proportion of bleached leaf area is more than 50% is defined as grade 2, and the case where the proportion of bleached leaf area is 100% grade is defined as grade 3.
According to the method as described above in point 6 of Example 1, the aforementioned Arabidopsis thaliana T1 plants and wild-type Arabidopsis thaliana plants (CK) (18 days after sowing) were sprayed respectively with topramezone at three concentrations (25 g ai/ha (one-fold field concentration, 1×). 100 g ai/ha (four-fold field concentration, 4×), and 0 g ai/ha (water, 0×)), isoxaflutole at three concentrations (35 g ai/ha (half-fold field concentration, 0.5×). 70 g ai/ha (one-fold field concentration, 1×), and 0 g ai/ha (water, 0×)), and mesotrione at three concentrations (52.5 g ai/ha (half-fold field concentration, 0.5×), 105 g ai/ha (one-fold field concentration, 1×), and 0 g ai/ha (water, 0×)) to detect the tolerance of Arabidopsis thaliana to the herbicides.
According to the method as described above in point 6 of Example 1, the aforementioned Arabidopsis thaliana T1 plants and wild-type Arabidopsis thaliana plants (CK) (18 days after sowing) were sprayed with topramezone at three different concentrations (i.e., 100 g ai/ha (four-fold field concentration, 4×), 200 g ai/ha (eight-fold field concentration, 8×) and 0 g ai/ha (water, 0×)), isoxaflutole at three different concentrations (i.e., 140 g ai/ha (two-fold field concentration, 2×), 280 g ai/ha (four-fold field concentration, 4×) and 0 g ai/ha (water, 0×)), and mesotrione at three different concentrations (i.e., 210 g ai/ha (two-fold field concentration, 2×), 420 g ai/ha (four-fold field concentration, 4×) and 0 g ai/ha (water, 0×)) respectively to detect the herbicide tolerance of Arabidopsis thaliana. […]

| Molecule | Resistance evaluation | Scores |
| --- | --- | --- |
| B1 | Non-resistant | 100 |
| B2 | Moderately | 31 |
| B3 | Non-resistant | 77 |
| B4 | Moderately | 21 |

same assay, conditions: mesotrione 52.5 g ai/ha; Arabidopsis thaliana T1 plants; 16 plants

| Molecule | Grade 0 (classification and statistics of the grade of pesticide damage; number of plants) | Grade 1 (classification and statistics of the grade of pesticide damage; number of plants) | Grade 2 (classification and statistics of the grade of pesticide damage; number of plants) | Grade 3 (classification and statistics of the grade of pesticide damage; number of plants) |
| --- | --- | --- | --- | --- |
| B1 | 0 | 0 | 0 | 16 |
| B2 | 6 | 7 | 1 | 2 |
| B3 | 0 | 0 | 11 | 5 |
| B4 | 7 | 8 | 1 | 0 |

same assay, conditions: mesotrione 105 g ai/ha; Arabidopsis thaliana T1 plants

| Molecule | Resistance evaluation | Scores |
| --- | --- | --- |
| B1 | Non-resistant | 100 |
| B2 | Poorly resistant | 58 |
| B3 | Non-resistant | 100 |
| B4 | Moderately | 33 |

same assay, conditions: mesotrione 105 g ai/ha; Arabidopsis thaliana T1 plants; 16 plants

| Molecule | Grade 0 (classification and statistics of the grade of pesticide damage; number of plants) | Grade 1 (classification and statistics of the grade of pesticide damage; number of plants) | Grade 2 (classification and statistics of the grade of pesticide damage; number of plants) | Grade 3 (classification and statistics of the grade of pesticide damage; number of plants) |
| --- | --- | --- | --- | --- |
| B1 | 0 | 0 | 0 | 16 |
| B2 | 0 | 4 | 12 | 0 |
| B3 | 0 | 0 | 0 | 16 |
| B4 | 5 | 6 | 5 | 0 |
